A short description of the series: yeast display, Sf9 membrane polyspecificity reagent, FACS + sequencing; frameworks hold sequencing errors. A digest of the protocol:
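A synthetic nanobody library was expressed on Saccharomyces cerevisiae BJ5465 by galactose induction for 36–48 hours. The library was stained for 1 hour at 4 °C with 10% biotinylated, detergent-solubilized Sf9 membrane reagent and enriched with streptavidin microbeads before FACS. Low and high (top ~1%) gates were set on anti-HA fluorescence for expression and streptavidin fluorescence for reagent binding, and each polyreactivity label reflects the gate of origin.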
In the case of “QVQLVESGGGLVQAGGSLRLSCAASGFIFSRYAMGWYRQAPGKERELVAYITRRGGRTFYADSVKGRFTISRDNAKNTVYLQMNSLKPEDTAVYYCGADAYGLTLFYVFSYDYWGQGTQVTVSS”, the “polyreactivity (PSR sort gate)” value is “high polyreactivity”.
The value for “QVQLVESGGGLVQAGGSLRLSCAASGFIFSRYTMGWYRQAPGKERELVAAISKRGGSTYYADSVKGRFTISRDNAKNTVYLQMNSLKPEDTAVYYCAADRLPSGSLVEYWGQGTQVTVSS” was “high polyreactivity”; that for “QVQLVESGGGLVQAGGSLRLSCAASGFIFSRYTMGWYRQAPGKERELVAAITWSGGSTYYADSVKGRFTISRDNAKNTVYLQMNSLKPVDTAVYYCAAARISVVQGDYWGQGTQVTVSS” was “high polyreactivity”; that for “QVQLVESGGGLVQAGGSLRLSCAASGFIFSSNAMGWYRQAPGKERELVARITWSDGSTYYADSVKGRFTISRDNAKNTVYLQMNSLKPEDTAAYYCAKGRDATHYEYYLYSMDYWGQGTQVTVSS” was “low polyreactivity”.
For “QVQLVESGGGLVQAGGSLRLSCAASGFIFSSYAMGWYIQAPGKERELVAAISRSGGRTYYADSVKGRFTISRDNAKNTVYLKMNSLKPEDTAVYYCAAKWLGTAGDDYWGQGTQVTVSS”, the “polyreactivity (PSR sort gate)” value is given as “high polyreactivity”.
The entry for “QVQLVESGGGLVQAGGSLRLSCAASGFIFSSYAMGWYRQAPGKERELVAAITSRGGSTYYADSVKGRFTISRDNAKNTVYLQMNSLKPEDTAVYYCNAVVTKYAKSRFLYYYWGQGTQVTVSS” is “high polyreactivity”; for “QVQLVESGGGLVQAGGSLRLSCAASGFIFSVYAMGWYRQAPGKERELVAAITGNGVSTYYADSVKGRFTISRDNAKNTVYLQMISLKPEDTAVYSCATYGRRWYSSRRLDYWGQGTQVTVSS” it is “low polyreactivity”.
The entry for “QVQLVESGGGLVQAGGSLRLSCAASGFIFSYNVMGWYRQAPGKERELVAAISSGGGRTYYADSVKGRFTISRDNAKNTVYLQMNSLKPEDTAVYYCNAYRLSRVQLYYWGQGTQVTVSS” is “high polyreactivity”; for “QVQLVESGGGLVQAGGSLRLSCAASGFIFSYYAMGGYRQAPGKERELVAAITSGGSTNYADSVKGRLTISRDNAKNTFYLQMNSLKPEDTAVYYCAAERGDTAYLKYDYCGQGTQVTVSS” it is “low polyreactivity”.
The entry for “QVQLVESGGGLVQAGGSLRLSCAASGFIFSYYAMGWYRQAPGKERELVAAISISGGSTYYADSVKGRFTISRDNAKTTVYLQMNSLKPEDTAVYYCNKAPRYPYGGYDYWGQGTQVTVSS” is “low polyreactivity”; for “QVQLVESGGGLVQAGGSLRLSCAASGFIFSYYAMGWYRQAPGKERELVAAISKTGGNTFYADSVKGRFTISRDNAKNTVYLQMNSLKPEDTGVYYCNALRGDWRDMGYWGQGTQVTVSS” it is “high polyreactivity”.
With “QVQLVESGGGLVQAGGSLRLSCAASGFIFSYYAMGWYRQAPGKERELVAAISRSGGSTYYADSVKGRFTISRDNAKNTVYLQMNSLKPEDTAVYYCAARYWRRYGQGYRYDYWGQGTQVTVSS”, the “polyreactivity (PSR sort gate)” value was “high polyreactivity”.
The value for “QVQLVESGGGLVQAGGSLRLSCAASGFIFSYYAMGWYRQAPGKERELVAAITWDGGSTYYADSVKGRFTISRDYANNTVYLLLNSLKPEDTAVYYCNAYYYYRRPLEGGYWGQGNQVTVSS” was “low polyreactivity”; that for “QVQLVESGGGLVQAGGSLRLSCAASGFIFSYYAMGWYRQAPGKERELVAGITRSGGSTYYADSVKGRFTISRDNAKNTVYLQMNSLKPEDTAVYYCAAGYFYHFSRYTNRYGYWGQGTQVTVSS” was “high polyreactivity”; that for “QVQLVESGGGLVQAGGSLRLSCAASGFIFSYYAMGWYRQAPGKEREWVAAISKTGGNTYYADSVKGRFTISRDNAKKTVYLQMNSLKPEDTAVYYCNALRGDWRDMGYCGQGTQVTVSS” was “high polyreactivity”.
The entry for “QVQLVESGGGLVQAGGSLRLSCAASGFIFSYYAMVWYRQAPGTERELVAAISSSGSRTYYADSVKGRFTISRDNAKNTVYLQMNSLKPEDTAVYYCAARGAAKYGYWGQGTQVTVSS” is “high polyreactivity”; for “QVQLVESGGGLVQAGGSLRLSCAASGFIFTDNAMGRYRHAPRTERELVAAINLSGTRTYYADSVKGRFTISRDNAKNTVYLQMNSLKPEDTAVYYCNKSEDYTYDYWGQGTQVTVSS” it is “low polyreactivity”; for “QVQLVESGGGLVQAGGSLRLSCAASGFIFTDYAMGWYRQAPGKEREFVAAIDWSGGNTYYADSVKGRFTISRDHAKNTVYLQMNRLKPEDTAVYYCNAGDYFVRFVYYWDDERYDYWGQGTQVTVSS” it is “low polyreactivity”.
The entry for “QVQLVESGGGLVQAGGSLRLSCAASGFIFTFYAMGWYRQAPGKEREFVASIDWGDGSTYYADSVKGRFTISRDNAKNTVYLQMNSLKPEDTAVYYCATDVYFLSSEYWGQGTQVTVSS” is “low polyreactivity”; for “QVQLVESGGGLVQAGGSLRLSCAASGFIFTGNAMGWYRQAPGKERELVAAISKRGGRTYYADSVKGRFTISRDNAKNTVYLQMNSLKPEDTAVYYCAAVGYAYTYAEYYYWGQGTQVTVSS” it is “high polyreactivity”.
On to “QVQLVESGGGLVQAGGSLRLSCAASGFIFTGNAMGWYRQAPGKERELVAAITGRGSTYYADSVKGRFTISRDNGKNSVYLQMNSLKPEDTAVYYCAAKRWWQYYWGQGTQVTVSS”, for which the “polyreactivity (PSR sort gate)” value is on record as “high polyreactivity”.
For “QVQLVESGGGLVQAGGSLRLSCAASGFIFTGYTMGWYRQAPGKERELVARISSGDSTKYADSVKGRFTISRDNAKNNVYLQMNSLKPEDTAVYYCAAYIRNARNGTTYDYWGQGTQVTVSS”, the “polyreactivity (PSR sort gate)” value is “high polyreactivity”.
The entry for “QVQLVESGGGLVQAGGSLRLSCAASGFIFTHYAMGWYRQAPGKERELVAAISRRGGSTYYADSVKGRFTISRDNAKNTVYLQMNSLKPEDTAVYYCAADNYDAWYWDYYWGQGTQVTVSS” is “high polyreactivity”; for “QVQLVESGGGLVQAGGSLRLSCAASGFIFTKYAMGWYRQAPGKERELVAVITSRGTRTYYADSVKGRFTISRDNAKNTVYLQMNSLKPEDTAVYYCAADYQGPYDYWGQGTQVTVSS” it is “high polyreactivity”; for “QVQLVESGGGLVQAGGSLRLSCAASGFIFTNVMGWYRQAPGKERELVAAISGRGTSTYYADSVKGRFTISRDNAKNTVYLQMNSLKPEETAVYYCAAASYQSRYWNYYWGQGTQVTVSS” it is “high polyreactivity”.
The value for “QVQLVESGGGLVQAGGSLRLSCAASGFIFTPYAMGWYRQAPGKEREFVATITWSGGSTNYADSVKGRFTISRDNAKNTVYLQMNSLKPEDTAVYYCNADTWSPNDYWGQGTQVTVSS” was “low polyreactivity”; that for “QVQLVESGGGLVQAGGSLRLSCAASGFIFTPYAMGWYRQAPGKERELVAAISKSGADTFYADSVKGRFTISRDNAKNTVYLQMNSLKPEDTAVYYCAADDYWGYDYWGQGTQVTVSS” was “high polyreactivity”.
The entry for “QVQLVESGGGLVQAGGSLRLSCAASGFIFTPYAMGWYRQAPGKERELVAAISWIGGRTYYADSVKGRFTISRDNAKNTVYLQMHSLKPEDTAVYYCNARTHGWPYSRYYYWGQGTQVTVSS” is “high polyreactivity”; for “QVQLVESGGGLVQAGGSLRLSCAASGFIFTQNAMGWYRQAPGKERELVAVIRWNGGSTYYADSVKGRFTISRDNAKNTVYLQMNSLKPEDTEVYYCAAEFLWIVDYWGQGTQVTVSS” it is “low polyreactivity”.
For “QVQLVESGGGLVQAGGSLRLSCAASGFIFTRNAMGWYRQAPGKERELVAAITSSGGSTYYADSVKGRFTISRDNAKYTVYLQMNCLKPEDTAVYYFAADDIQTYGDDYWGQGTQVTVSS”, the “polyreactivity (PSR sort gate)” value was “high polyreactivity”.
The value for “QVQLVESGGGLVQAGGSLRLSCAASGFIFTRNVMGWNRQAPGKERELVAAISSGGRTYYADSVKGRFTISRDNAKKTVYFQMISLKPEDTAVYYCNAGNRGVYRYDYWGQGTQVTVSS” was “high polyreactivity”; that for “QVQLVESGGGLVQAGGSLRLSCAASGFIFTSNAMGWYRQAPGKERELVAAITKSGGSTYYADSVKGRFTISRDNAKNTVYLQMNSLKPEDTAVYYCATRGVRRYYKTMNYWGQGTQVTVSS” was “high polyreactivity”; that for “QVQLVESGGGLVQAGGSLRLSCAASGFIFTSYALGWYRQAPGKEREFFAAISRRGGSTYYADSVKGRFTISRDNAKNTVYLQMNSLKPEDTAVYYCAADPKQHSGYDYWGQGTQVTVSS” was “high polyreactivity”.
As for “QVQLVESGGGLVQAGGSLRLSCAASGFIFTSYAMGWYRQAPGKERELVAAITDGGSTNYADSVKGRFTISRDNAKNTVYLQMNSLKPEDTAVFYCAADGFKTVLPEYDYWGQGTQVTVSS”, the “polyreactivity (PSR sort gate)” value was “low polyreactivity”.
The entry for “QVQLVESGGGLVQAGGSLRLSCAASGFIFTSYDMGWYRQAPWKEREFVAAISWSGDRTYYADSVKGRFTISRDYAKNTVYLQMNSLKPEDTAVYYCAADRSIRRYYGYDYWGQGTQVTVSS” is “high polyreactivity”; for “QVQLVESGGGLVQAGGSLRLSCAASGFIFTTNAMGWYRQAPGKERELVAAITRSGGSTYADSVKGRFTLSRDNAKNTVYLQMNSLKPEETAVYYCNADGYFWGQGTQVTVSS” it is “low polyreactivity”.
For the sequence “QVQLVESGGGLVQAGGSLRLSCAASGFIFTVNAMGWYRQAPGKERELVAAITQSGGNTSYADSVKGRFTISRDNAKNTVYLQMNSLKPEDTAVYYCNASSDTSRYGVSTYYYWGQGTQVTVSS”, the “polyreactivity (PSR sort gate)” value was “low polyreactivity”.
The value for “QVQLVESGGGLVQAGGSLRLSCAASGFIFTVNAMGWYRQAPGKERELVAAITQSGGNTSYADSVKGRFTISRDNAKNTVYLQMNSLTPEDTAVYYCNASSDTSRYGVSTYYYWGQGTQVTVSS” was “low polyreactivity”.
The value for “QVQLVESGGGLVQAGGSLRLSCAASGFIFTVYAMGWYRQAPGKERELVAAINRSGTRTTYADSVKGRFSISRDNAKNTVYIQMNSLKPEDTAVYYCAALSTGSHWQNEYGYWGQGTQVTVSS” was “low polyreactivity”; that for “QVQLVESGGGLVQAGGSLRLSCAASGFIFTYYAMGWFRQAPGKERELVAVISWSGGTTYYADSVKGRFTISRDNAKNTVYLQMNSLKPEDTAVFYCNARSLAKLPRSSVRVEYDYWGQGTQVTLSS” was “low polyreactivity”.
The entry for “QVQLVESGGGLVQAGGSLRLSCAASGFIFTYYAMGWYRQAPGKERELVAAISSRGGSTFYADSVKGRFTISRDNAKNTVYLQMNSLKPEDTAVYYCAADKWYAANQGYYYWGQGTQVTVSS” is “low polyreactivity”.

The values are drawn from the nanobody polyreactivity screen of Harvey et al. (2022).
